Measurements reported in doi:10.1101/2023.03.28.534377.

What was measured:
Test in all cases: pull-down
[1] = target: His-ImuB-L378A (M. smegmatis) (M. smegmatis)
[2] = target: His-ImuB-L378A+V383A (M. smegmatis) (M. smegmatis)
[3] = target: His-ImuB-V383A (M. smegmatis) (M. smegmatis)

fold less pulled down than by His-ImuB [1]: 1.5 fold | fold less pulled down than by His-ImuB [2]: 3 fold | fold less pulled down than by His-ImuB [3]: 1.5 fold
Substance: Strep-VFP-tagged ImuA’ (M. smegmatis) (natural protein)
